Assay results published in article PMC7196576, “Structural changes of a bacteriophage upon DNA packaging and maturation” (Protein & Cell, 2020).

B1: adaptor protein gp11 of bacteriophage T7 (natural protein, Escherichia coli bacteriophage T7, UniProt P03746 1-196, looked up)
chain: MRSYDMNVETAAELSAVNDILASIGEPPVSTLEGDANADAANARRILNKINRQIQSRGWTFNIEEGITLLPDVYSNLIVYSDDYLSLMSTSGQSIYVNRGGYVYDRTSQSDRFDSGITVNIIRLRDYDEMPECFRYWIVTKASRQFNNRFFGAPEVEGVLQEEEDEARRLCMEYEMDYGGYNMLDGDAFTSGLLTR
notes: adaptor protein gp11, Escherichia coli bacteriophage T7; Native protein in the virion; dodecameric ring; also called tail adaptor; source: in mature T7 phage purified from cells; copies: 12
B2: tail fiber gp17 of bacteriophage T7 (natural protein, Escherichia coli bacteriophage T7, UniProt P03748 1-553, looked up)
chain: MANVIKTVLTYQLDGSNRDFNIPFEYLARKFVVVTLIGVDRKVLTINTDYRFATRTTISLTKAWGPADGYTTIELRRVTSTTDRLVDFTDGSILRAYDLNVAQIQTMHVAEEARDLTTDTIGVNNDGHLDARGRRIVNLANAVDDRDAVPFGQLKTMNQNSWQARNEALQFRNEAETFRNQAEGFKNESSTNATNTKQWRDETKGFRDEAKRFKNTAGQYATSAGNSASAAHQSEVNAENSATASANSAHLAEQQADRAEREADKLENYNGLAGAIDKVDGTNVYWKGNIHANGRLYMTTNGFDCGQYQQFFGGVTNRYSVMEWGDENGWLMYVQRREWTTAIGGNIQLVVNGQIITQGGAMTGQLKLQNGHVLQLESASDKAHYILSKDGNRNNWYIGRGSDNNNDCTFHSYVHGTTLTLKQDYAVVNKHFHVGQAVVATDGNIQGTKWGGKWLDAYLRDSFVAKSKAWTQVWSGSAGGGVSVTVSQDLRFRNIWIKCANNSWNFFRTGPDGIYFIASDGGWLRFQIHSNGLGFKNIADSRSVPNAIMVENE
notes: tail fiber protein gp17, Escherichia coli bacteriophage T7; only the N-terminus (a jelly-roll barrel and a 22-residue alpha-helix) was resolved; Native protein in the virion; six trimers a phage; The distal parts of the fibers were too flexible to be resolved; source: in mature T7 phage purified from cells
B3: nozzle protein gp12 of bacteriophage T7 (natural protein, Escherichia coli bacteriophage T7, UniProt P03747 1-794, looked up)
chain: MALISQSIKNLKGGISQQPDILRYPDQGSRQVNGWSSETEGLQKRPPLVFLNTLGDNGALGQAPYIHLINRDEHEQYYAVFTGSGIRVFDLSGNEKQVRYPNGSNYIKTANPRNDLRMVTVADYTFIVNRNVVAQKNTKSVNLPNYNPNQDGLINVRGGQYGRELIVHINGKDVAKYKIPDGSQPEHVNNTDAQWLAEELAKQMRTNLSDWTVNVGQGFIHVTAPSGQQIDSFTTKDGYADQLINPVTHYAQSFSKLPPNAPNGYMVKIVGDASKSADQYYVRYDAERKVWTETLGWNTEDQVLWETMPHALVRAADGNFDFKWLEWSPKSCGDVDTNPWPSFVGSSINDVFFFRNRLGFLSGENIILSRTAKYFNFYPASIANLSDDDPIDVAVSTNRIAILKYAVPFSEELLIWSDEAQFVLTASGTLTSKSVELNLTTQFDVQDRARPFGIGRNVYFASPRSSFTSIHRYYAVQDVSSVKNAEDITSHVPNYIPNGVFSICGSGTENFCSVLSHGDPSKIFMYKFLYLNEELRQQSWSHWDFGENVQVLACQSISSDMYVILRNEFNTFLARISFTKNAIDLQGEPYRAFMDMKIRYTIPSGTYNDDTFTTSIHIPTIYGANFGRGKITVLEPDGKITVFEQPTAGWNSDPWLRLSGNLEGRMVYIGFNINFVYEFSKFLIKQTADDGSTSTEDIGRLQLRRAWVNYENSGTFDIYVENQSSNWKYTMAGARLGSNTLRAGRLNLGTGQYRFPVVGNAKFNTVYILSDETTPLNIIGCGWEGNYLRRSSGI
notes: nozzle protein gp12, Escherichia coli bacteriophage T7; Native protein in the virion; hexameric tube; source: in mature T7 phage purified from cells
B4: portal protein gp8 of bacteriophage T7 (natural protein, Escherichia coli bacteriophage T7, UniProt P03728 1-536, looked up)
chain: MAEKRTGLAEDGAKSVYERLKNDRAPYETRAQNCAQYTIPSLFPKDSDNASTDYQTPWQAVGARGLNNLASKLMLALFPMQTWMRLTISEYEAKQLLSDPDGLAKVDEGLSMVERIIMNYIESNSYRVTLFEALKQLVVAGNVLLYLPEPEGSNYNPMKLYRLSSYVVQRDAFGNVLQMVTRDQIAFGALPEDIRKAVEGQGGEKKADETIDVYTHIYLDEDSGEYLRYEEVEGMEVQGSDGTYPKEACPYIPIRMVRLDGESYGRSYIEEYLGDLRSLENLQEAIVKMSMISSKVIGLVNPAGITQPRRLTKAQTGDFVTGRPEDISFLQLEKQADFTVAKAVSDAIEARLSFAFMLNSAVQRTGERVTAEEIRYVASELEDTLGGVYSILSQELQLPLVRVLLKQLQATQQIPELPKEAVEPTISTGLEAIGRGQDLDKLERCVTAWAALAPMRDDPDINLAMIKLRIANAIGIDTSGILLTEEQKQQKMAQQSMQMGMDNGAAALAQGMAAQATASPEAMAAAADSVGLQPGI
notes: portal protein gp8, Escherichia coli bacteriophage T7; domains clip (294-334), stem (335-356 and 269-293), wing (1-268, 357-427), crown (428-492), C-terminal helical barrel; Native protein in the virion; dodecamer at one vertex; The C-terminal barrel is not seen in capsid II; also called T7 portal; source: in mature T7 phage and T7 capsid II particles purified from cells; copies: 12

Molecular target: the molecule itself
Experiment: cryo-EM structure; mature T7 phage purified from cells; icosahedral, symmetry-mismatch and local reconstructions (shell 3.5 Å, asymmetric 7 Å, portal-tail complex 3.8 Å, core 6.0 Å)

Protein | stoichiometry N
B1 | 12
B2 | 3
B3 | 6
B4 | 12
